The test has as its target T1, 재조합 인간 TIGIT 단백질 (acrobiosystems, China) (human, UniProt Q495A1 22-141).
T1 construct: Bought recombinant protein; also called hTIGIT
T1 sequence: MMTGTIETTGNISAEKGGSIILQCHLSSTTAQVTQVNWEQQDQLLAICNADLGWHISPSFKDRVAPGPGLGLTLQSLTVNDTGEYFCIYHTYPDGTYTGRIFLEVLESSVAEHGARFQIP
In words: SPR (Biacore T200), multi-cycle kinetics, antibody captured, TIGIT as analyte, 1:1 model. On the technique in general: In SPR one partner is held on a chip, and binding of the other changes the refractive index at the surface.

B1: 마우스 항-TIGIT 단클론 항체 2B7 (mouse backbone mIgG1) (antibody, V domains shown)
VH: EVQLQQSGPELVKPGASVKISCKTSGSTFTEYTMHWVKQSHGKSLEWIGGLNPNNGGTSYNQRFKDRATLTVDKSSSTAYMELRSLTSEDSAVYYCTRGTYYDYSFAYWGQGTLVTVSA
VL: DIVMTQSHKFMSTSVGDRVSITCKASHYVSTAVAWYQQKPGQSPKLLIYSPSYRYTGVPDRFTGSGSGTDFTFTISSVQAEDLAVYYCHQHYSTPWTFGGGTKLEIK
notes: also called 항-TIGIT 2B7 항체; 클론 2B7
As to B1, the Kd (usually the equilibrium constant for the complex coming apart) is 1.89 nM; the koff (as a rule, a measure of how fast the partners let go of each other) worked out at 0.000445 s⁻¹; the kon (as a rule, a measure of how fast the partners come together) stood at 235000 M⁻¹ s⁻¹.

B2: 마우스 항-TIGIT 단클론 항체 3F8 (mouse backbone mIgG1) (antibody, V domains shown)
VH: EVQLQQSGPELVKPGASMKISCKASGYSFTDYIMNWVKQSHGKNLEWIGLSIPYNGGTSYNQKFEGKATLTVDKSSSTAYMELLSLTSEDSAVYYCARGIKGYFAMDYWGQGTSVTVSS
VL: DVVVTQTPLSLPVSFGDQVSISCRSSQSLVNSFGKTYLSWFLHKPGQSPQLIMYGVSNRFSGVPDRFSGSGSGTDFTLKISTIKPEDLGMYYCLQGTHQPWTFGGGTKLEIK
notes: also called 항-TIGIT 3F8 항체; 클론 3F8
The molecule B2 registered a Kd of 0.986 nM, a koff of 0.000216 s⁻¹ and a kon of 219000 M⁻¹ s⁻¹.
